Data reported in patent publication US20100260765A1 (AstraZeneca / MedImmune, published 2010).

Key:
[1] = target: T1, human KDR (VEGFR2) on cells (human, UniProt P35968 20-1356); experiment: cell-based or functional assay
[2] = target: T2, soluble KDR (VEGF Receptor 2 D1-7, Cat. #676490, Calbiochem) (human, UniProt P35968 20-764); experiment: ELISA, plate-coated soluble KDR 250 ng/mL, hybridoma supernatant 1:5
T2 construct: extracellular domain; Bought reagent; also called soluble human KDR; immobilized soluble KDR
Protocol: To screen by binding to immobilized soluble KDR, plates were coated with KDR (Calbiochem) at 250 ng/mL overnight at 4° C. After blocking and washing the coated plates, the candidate hybridoma supernatants (at 1:5 dilution) were transferred to the plates and incubated for one hour at room temperature. The plates were then washed and incubated with secondary antibody (at 1:4000 dilution) for one hour at room temperature.

[3] = target: T1, human KDR (VEGFR2) on cells; experiment: cell-based or functional assay; remark: listed apart in the source
[4] = target: T1, human KDR (VEGFR2) on cells; experiment: FACS on HUVEC, hybridoma supernatant 1:50
Protocol: HUVECs were seeded at 15,000 cells/well and incubated with 100 μL of sample supernatant (at 1:50 dilution) for one hour at 4° C. The positive control was goat anti-KDR antibody (R&D Systems, Inc.), and negative controls included irrelevant hybridoma supernatants at the same dilution. The cells were then washed and incubated with Cy5-conjugated goat anti-human antibody at 5 μg/mL and 7-Amino-Actinomycin D (7AAD) at 5 μg/mL for 15 minutes at 4° C. Bound KDR was detected using FACS analysis.

[5] = target: T1, human KDR (VEGFR2) on cells; experiment: cell-based or functional assay; remark: listed apart in the source
[6] = target: T3, mouse KDR (Flk-1)/Fc (Cat. #443-KD/CF, R&D Systems) (mouse, UniProt P35918 20-762); experiment: ELISA, plate-coated Flk-1/Fc 500 ng/mL, hybridoma supernatant 1:5
T3 construct: Bought reagent; also called mouse VEGFR2; KDR mouse ortholog; Fc part of the bought chimera not given
Protocol: The cross-reactivity of antibodies in the hybridoma supernatant was tested against KDR mouse ortholog (mouse VEGFR2, or Flk-1) and human VEGFR1 (Flt-1). Cross-reactivity was measured using an ELISA based assay.
After washing and blocking the plates, the antibody-containing supernatants were added (at 1:5 dilution) into the coated wells and incubated for one hour at room temperature. The plates were then incubated with mouse anti-human IgG 2, 3 and 4 and subsequently with goat anti-mouse IgG Fc POD, to detect and measure bound antibodies.

T1 sequence (P35968 20-1356): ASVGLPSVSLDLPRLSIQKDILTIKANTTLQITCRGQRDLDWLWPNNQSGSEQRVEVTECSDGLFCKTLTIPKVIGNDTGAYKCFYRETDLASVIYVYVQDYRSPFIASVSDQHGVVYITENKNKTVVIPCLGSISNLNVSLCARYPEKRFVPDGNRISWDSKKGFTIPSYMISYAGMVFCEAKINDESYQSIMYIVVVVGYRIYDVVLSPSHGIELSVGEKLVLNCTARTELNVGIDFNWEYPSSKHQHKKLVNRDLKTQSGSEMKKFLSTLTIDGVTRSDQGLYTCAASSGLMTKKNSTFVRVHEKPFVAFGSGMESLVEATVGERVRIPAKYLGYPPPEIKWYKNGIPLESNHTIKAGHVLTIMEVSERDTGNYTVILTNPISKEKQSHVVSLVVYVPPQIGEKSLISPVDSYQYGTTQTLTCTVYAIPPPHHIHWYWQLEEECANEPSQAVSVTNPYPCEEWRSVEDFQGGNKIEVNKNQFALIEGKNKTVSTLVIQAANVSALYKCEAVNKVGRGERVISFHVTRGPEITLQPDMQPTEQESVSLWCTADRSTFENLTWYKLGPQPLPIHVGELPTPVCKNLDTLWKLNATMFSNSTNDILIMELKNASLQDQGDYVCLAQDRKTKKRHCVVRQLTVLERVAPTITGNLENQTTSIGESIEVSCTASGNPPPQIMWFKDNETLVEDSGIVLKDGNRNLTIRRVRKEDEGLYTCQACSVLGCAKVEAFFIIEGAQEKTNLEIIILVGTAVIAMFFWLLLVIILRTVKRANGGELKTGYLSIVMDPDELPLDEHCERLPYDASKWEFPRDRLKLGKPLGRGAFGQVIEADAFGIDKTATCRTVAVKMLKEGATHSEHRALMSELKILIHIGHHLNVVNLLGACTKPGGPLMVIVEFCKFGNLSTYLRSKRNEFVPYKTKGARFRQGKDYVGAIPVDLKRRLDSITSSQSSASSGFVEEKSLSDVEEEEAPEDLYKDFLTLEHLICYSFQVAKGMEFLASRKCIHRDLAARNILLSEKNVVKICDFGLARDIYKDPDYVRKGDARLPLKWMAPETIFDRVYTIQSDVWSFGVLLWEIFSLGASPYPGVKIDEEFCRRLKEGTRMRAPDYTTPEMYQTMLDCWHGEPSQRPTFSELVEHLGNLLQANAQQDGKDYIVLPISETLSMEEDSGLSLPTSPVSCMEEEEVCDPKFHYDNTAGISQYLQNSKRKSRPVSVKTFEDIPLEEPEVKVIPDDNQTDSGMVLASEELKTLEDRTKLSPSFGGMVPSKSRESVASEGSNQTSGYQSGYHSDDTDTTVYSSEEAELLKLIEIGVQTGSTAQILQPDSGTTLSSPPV
T2 sequence (P35968 20-764): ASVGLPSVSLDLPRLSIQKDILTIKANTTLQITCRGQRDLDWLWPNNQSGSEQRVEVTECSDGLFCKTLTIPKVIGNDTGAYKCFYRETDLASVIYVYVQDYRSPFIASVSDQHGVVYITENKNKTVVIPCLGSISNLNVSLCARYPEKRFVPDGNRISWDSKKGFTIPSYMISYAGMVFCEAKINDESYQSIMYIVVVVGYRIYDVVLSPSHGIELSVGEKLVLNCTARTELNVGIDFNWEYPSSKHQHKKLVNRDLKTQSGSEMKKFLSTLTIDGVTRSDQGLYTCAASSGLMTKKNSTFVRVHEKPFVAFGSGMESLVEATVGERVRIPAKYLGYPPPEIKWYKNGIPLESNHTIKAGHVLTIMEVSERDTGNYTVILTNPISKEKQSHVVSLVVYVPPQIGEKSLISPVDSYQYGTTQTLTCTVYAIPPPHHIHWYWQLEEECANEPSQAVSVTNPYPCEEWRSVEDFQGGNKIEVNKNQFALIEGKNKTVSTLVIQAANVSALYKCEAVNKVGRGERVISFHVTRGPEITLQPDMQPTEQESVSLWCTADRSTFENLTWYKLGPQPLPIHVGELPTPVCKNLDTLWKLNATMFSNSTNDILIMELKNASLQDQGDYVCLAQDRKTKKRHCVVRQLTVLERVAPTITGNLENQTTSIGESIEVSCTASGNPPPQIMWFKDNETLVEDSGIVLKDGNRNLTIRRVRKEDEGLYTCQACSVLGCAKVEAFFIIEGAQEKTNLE
T3 sequence (P35918 20-762): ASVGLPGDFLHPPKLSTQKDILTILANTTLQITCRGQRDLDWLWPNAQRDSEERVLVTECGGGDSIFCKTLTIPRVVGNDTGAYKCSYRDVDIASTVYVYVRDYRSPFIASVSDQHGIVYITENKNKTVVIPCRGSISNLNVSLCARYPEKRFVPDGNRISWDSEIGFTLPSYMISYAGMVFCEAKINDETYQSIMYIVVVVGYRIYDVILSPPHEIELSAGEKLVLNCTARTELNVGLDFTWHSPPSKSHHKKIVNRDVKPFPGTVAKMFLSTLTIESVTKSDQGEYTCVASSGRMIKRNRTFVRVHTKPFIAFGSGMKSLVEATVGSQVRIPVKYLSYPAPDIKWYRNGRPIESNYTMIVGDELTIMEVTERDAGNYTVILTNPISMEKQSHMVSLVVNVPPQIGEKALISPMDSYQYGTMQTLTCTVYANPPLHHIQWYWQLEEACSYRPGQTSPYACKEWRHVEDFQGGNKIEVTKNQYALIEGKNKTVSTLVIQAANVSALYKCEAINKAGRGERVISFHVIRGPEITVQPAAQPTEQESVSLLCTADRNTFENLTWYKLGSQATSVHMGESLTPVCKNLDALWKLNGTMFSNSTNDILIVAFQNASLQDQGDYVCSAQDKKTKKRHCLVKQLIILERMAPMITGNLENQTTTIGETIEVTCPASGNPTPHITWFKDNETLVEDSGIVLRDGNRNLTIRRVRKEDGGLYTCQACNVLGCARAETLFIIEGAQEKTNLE

B1: anti-KDR monoclonal antibody 30D7 (antibody, V domains shown)
VH: QVPLVESGGGVVQPGRSLRLSCAASGFTFSSYGMHWVRQAPGKGLEWVAVIWYDGSNKYYADSVKGRFTISRDNSKNTLYLQMNSLRAEDTAVYYCARGVTMVRGVIIARYYYGLDVWGQGTTVTVSS
VL: DIVMTQTPLSSPVTLGQPASISCRSSQSLVHSDGNTYLSWLQQRPGQPPRLLIYKISNRFFGVPDRFSGSGAGTDFTLKIGRVEAEDVGLYYCMQSTQFPLTFGGGTKVEIK
notes: Fully human mAb from XenoMouse (IgG2 or IgG4 strain); hybridoma supernatant
[1]
  % Inhibition of VEGF-E-mediated pTyr Activity: 24%
[2]
  KDR OD(450 nm): 3.45 OD450
[3]
  HUVEC survival (n = 1) 1:10 dilution of supernatant (RLU): 28300 RLU
  HUVEC survival (n = 2) 1:20 dilution of supernatant (RLU): 2520 RLU
[4]
  FACS Geometric Mean: 31
[5]
  % Inhibition of VEGF165-mediated pTyr Activity, Average: 76%
  % Inhibition of VEGF165-mediated pTyr Activity, n = 1: 99%
  % Inhibition of VEGF165-mediated pTyr Activity, n = 2: 71%
  % Inhibition of VEGF165-mediated pTyr Activity, n = 3: 59%

B2: anti-KDR monoclonal antibody 29A3 (antibody, V domains shown)
VH: QVQLQESGPGLVKPSETLSLTCTVSGGSISSYFWSWIRQPAGKGLEWIGRIYFSGRTNYNPSLKSRVTMSVETSKNQFSLKLNSVTAADTAVYYCARDGGWNYDVAFDYWGQGTLVTVSS
VL: QAVLTQPSSLSASPGASASLTCTLRSGINVGTYRIYWYQQKPGSPPQYLLRYKSDSDQLQGSGVPSRFSGSKDASANAGILLISGLQSEDEADYYCMVWHSNTWVFGGGTKLTVL
notes: as for B1
[1]
  % Inhibition of VEGF-E-mediated pTyr Activity: 22%
[2]
  KDR OD(450 nm): 0.814 OD450
[3]
  HUVEC survival (n = 1) 1:10 dilution of supernatant (RLU): 36400 RLU
  HUVEC survival (n = 2) 1:20 dilution of supernatant (RLU): 2450 RLU
[4]
  FACS Geometric Mean: 30
[5]
  % Inhibition of VEGF165-mediated pTyr Activity, Average: 77%
  % Inhibition of VEGF165-mediated pTyr Activity, n = 1: 92%
  % Inhibition of VEGF165-mediated pTyr Activity, n = 2: 66%
  % Inhibition of VEGF165-mediated pTyr Activity, n = 3: 72%

B3: anti-KDR monoclonal antibody 24C9 (antibody, V domains shown)
VH: EVQLVESGGGLVKPGGSLRLSCAASGFTFSTYSMNWVRQAPGKGLEWVSFISGRSSYIYYADSVKGRFTISRDNAKNSLYLQMNSLRAEDTAVYYCSKDDWFEELWGQGTLVTVSS
VL: DIQMTQSPSSLSASVGDRVTITCRASQGIRNDLGWYQQKPGKAPKRLIYATFSLQSGVPSRFSGSGSGTEFTLTISSLQPEDFATYYCLQHNRYPWTFGQGTKVEIK
notes: as for B1
[1]
  % Inhibition of VEGF-E-mediated pTyr Activity: 51%
[2]
  KDR OD(450 nm): 0.55 OD450
[3]
  HUVEC survival (n = 1) 1:10 dilution of supernatant (RLU): 14600 RLU
  HUVEC survival (n = 2) 1:20 dilution of supernatant (RLU): 9180 RLU
[6]
  OD (450 nm): 0.098 OD450
[4]
  FACS Geometric Mean: 33
[5]
  % Inhibition of VEGF165-mediated pTyr Activity, Average: 46%
  % Inhibition of VEGF165-mediated pTyr Activity, n = 1: 55%
  % Inhibition of VEGF165-mediated pTyr Activity, n = 2: 45%
  % Inhibition of VEGF165-mediated pTyr Activity, n = 3: 38%

B4: anti-KDR monoclonal antibody 32B2 (antibody, V domains shown)
VH: EVQLLESGGGLVQPGGSLRLSCAASGFTFSNYAMSWVRQAPGKGLDWVSAISGRGGSTYYADSVKGRFTISRDNSKNTLFLLMNSLRAEDTAVYYCAKASGDDWGQGTLVTVSS
VL: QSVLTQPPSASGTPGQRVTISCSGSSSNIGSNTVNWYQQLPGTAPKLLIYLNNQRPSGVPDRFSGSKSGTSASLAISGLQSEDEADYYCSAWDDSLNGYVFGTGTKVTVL
notes: as for B1
[1]
  % Inhibition of VEGF-E-mediated pTyr Activity: 15%
[2]
  KDR OD(450 nm): 1.11 OD450
[3]
  HUVEC survival (n = 1) 1:10 dilution of supernatant (RLU): 19300 RLU
  HUVEC survival (n = 2) 1:20 dilution of supernatant (RLU): 400 RLU
[4]
  FACS Geometric Mean: 26
[5]
  % Inhibition of VEGF165-mediated pTyr Activity, Average: 77%
  % Inhibition of VEGF165-mediated pTyr Activity, n = 1: 91%
  % Inhibition of VEGF165-mediated pTyr Activity, n = 2: 75%
  % Inhibition of VEGF165-mediated pTyr Activity, n = 3: 66%

B5: anti-KDR monoclonal antibody 30E3 (antibody, V domains shown)
VH: EVQLLESGGGLVQPGGSLRLSCAASGFTFSNYALSWVRQAPGKGLEWVSAISGSGRNTYYADSVKGRFTLSRDNSKNTLFLQMNSLRAEDTAVYYCAKASGDNWGQGTLVTVSS
VL: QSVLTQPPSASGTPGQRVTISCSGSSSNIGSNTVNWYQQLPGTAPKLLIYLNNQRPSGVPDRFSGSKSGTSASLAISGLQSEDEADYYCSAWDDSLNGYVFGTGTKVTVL
notes: Fully human mAb from XenoMouse (IgG2 or IgG4 strain); hybridoma supernatant; also called 30E3.1; 30E3.2
[1]
  % Inhibition of VEGF-E-mediated pTyr Activity: 19%
[2]
  KDR OD(450 nm): 4.18 OD450
[3]
  HUVEC survival (n = 1) 1:10 dilution of supernatant (RLU): 37500 RLU
  HUVEC survival (n = 2) 1:20 dilution of supernatant (RLU): 30400 RLU
[4]
  FACS Geometric Mean: 36
[5]
  % Inhibition of VEGF165-mediated pTyr Activity, Average: 71%
  % Inhibition of VEGF165-mediated pTyr Activity, n = 1: 89%
  % Inhibition of VEGF165-mediated pTyr Activity, n = 2: 67%
  % Inhibition of VEGF165-mediated pTyr Activity, n = 3: 58%

B6: anti-KDR monoclonal antibody 29A11 (antibody, V domains shown)
VH: EVQLLESGGGLVQPGGSLRLSCAASGFTFSNYAMNWVRQAPGKGLEWVSAISGGGGNTYYADSVKGRFTISRDNSKNTLYLQMNRLRAEDTAVYYCAKASGDDWGQGTLVTVSS
VL: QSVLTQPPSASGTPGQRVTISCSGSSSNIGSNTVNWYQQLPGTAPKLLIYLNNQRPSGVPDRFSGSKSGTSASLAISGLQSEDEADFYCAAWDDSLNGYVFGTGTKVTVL
notes: as for B1
[1]
  % Inhibition of VEGF-E-mediated pTyr Activity: 15%
[2]
  KDR OD(450 nm): 3.53 OD450
[3]
  HUVEC survival (n = 1) 1:10 dilution of supernatant (RLU): 34600 RLU
  HUVEC survival (n = 2) 1:20 dilution of supernatant (RLU): 27700 RLU
[4]
  FACS Geometric Mean: 31
[5]
  % Inhibition of VEGF165-mediated pTyr Activity, Average: 78%
  % Inhibition of VEGF165-mediated pTyr Activity, n = 1: 96%
  % Inhibition of VEGF165-mediated pTyr Activity, n = 2: 72%
  % Inhibition of VEGF165-mediated pTyr Activity, n = 3: 66%

B7: anti-KDR monoclonal antibody 1G6 (antibody, V domains shown)
VH: EVQLLESGGGLVQPGGSLRLSCAASGFTFSSYAMSWVRQAPGKGLEWVSAISGGGGNTYYADSVKGRFTISRDNSKNTLYLQMNSLRAEDTAVYYCSKVATDYWGQGTLVTVSS
VL: QPVLTQSSSASASLGSSVKLTCTLSSGHSSYIIAWHQQQPGKAPRYLMKLEGSGSYNKGSGVPDRFSGSSSGADRYLTISNLQFEDEADYYCETWDSYTVVFGGGTKLTVL
notes: Fully human mAb from XenoMouse (IgG2 or IgG4 strain); tested here as hybridoma supernatant
[1]
  % Inhibition of VEGF-E-mediated pTyr Activity: 24%
[2]
  KDR OD(450 nm): 6 OD450
[3]
  HUVEC survival (n = 1) 1:10 dilution of supernatant (RLU): 47800 RLU
  HUVEC survival (n = 2) 1:20 dilution of supernatant (RLU): 10200 RLU
[6]
  OD (450 nm): 0.055 OD450
[4]
  FACS Geometric Mean: 32
[5]
  % Inhibition of VEGF165-mediated pTyr Activity, Average: 71%
  % Inhibition of VEGF165-mediated pTyr Activity, n = 1: 89%
  % Inhibition of VEGF165-mediated pTyr Activity, n = 2: 67%
  % Inhibition of VEGF165-mediated pTyr Activity, n = 3: 58%

B8: anti-KDR monoclonal antibody 29F7 (antibody, V domains shown)
VH: QVQLVQSGAEVKKPGASVKVSCKASGYTFTSYDINWVRQATGQGLEWMGWMNPNSGKTGYAQKFQGRVTMTRSTSISTAYMELSSLRSEDTAVYYCARGGYSNLGWFDPWGQGTLVTVSS
VL: DIQMTQSPSSVFASVGDRVTITCRASQGISTWLAWYQQKPGKAPKFLIYAASSLQSGVPSRFSGSGSGTDFTLTISSLQPDDFATYYCQQANNFPFTFGPGTKVDIK
notes: as for B1
[1]
  % Inhibition of VEGF-E-mediated pTyr Activity: 45%
[2]
  KDR OD(450 nm): 1.22 OD450
[3]
  HUVEC survival (n = 1) 1:10 dilution of supernatant (RLU): 44100 RLU
  HUVEC survival (n = 2) 1:20 dilution of supernatant (RLU): 24000 RLU
[6]
  OD (450 nm): 0.093 OD450
[4]
  FACS Geometric Mean: 32
[5]
  % Inhibition of VEGF165-mediated pTyr Activity, Average: 78%
  % Inhibition of VEGF165-mediated pTyr Activity, n = 1: 90%
  % Inhibition of VEGF165-mediated pTyr Activity, n = 2: 67%
  % Inhibition of VEGF165-mediated pTyr Activity, n = 3: 77%

B9: anti-KDR monoclonal antibody 33D5 (antibody, V domains shown)
VH: QVQLVQSGAEVKKPGASVKVSCKASGYTFGSYDINWVRQATGQGLEWMGWMNPNSGNTGYAQKFQGRVTLTRNTSIRTVYMELSSLRSEDTAVYYCARGGYSNLGWFDPWGQGSLVTVSS
VL: DIQMTQSPSSVSVSVGDRVTITCRASQGISSWLAWYQQKPGKAPKLLIYAASSLQSGVPSRFSGSGSGTDFTLTISSLQPEDFATYYCQQANSFPFTFGPGTKVDIK
notes: as for B1
[1]
  % Inhibition of VEGF-E-mediated pTyr Activity: 30%
[2]
  KDR OD(450 nm): 3.59 OD450
[3]
  HUVEC survival (n = 1) 1:10 dilution of supernatant (RLU): 43400 RLU
  HUVEC survival (n = 2) 1:20 dilution of supernatant (RLU): 706 RLU
[4]
  FACS Geometric Mean: 24
[5]
  % Inhibition of VEGF165-mediated pTyr Activity, Average: 77%
  % Inhibition of VEGF165-mediated pTyr Activity, n = 1: 95%
  % Inhibition of VEGF165-mediated pTyr Activity, n = 2: 72%
  % Inhibition of VEGF165-mediated pTyr Activity, n = 3: 63%
